Measured values taken from PMC10343166, “Structure of puromycin-sensitive aminopeptidase and polyglutamine binding” (PLOS ONE, 2023).

Assays:
[1] = target: T1, Puromycin-sensitive aminopeptidase, wild type, with C-terminal polyhistidine sequence (kinetic studies) (human, UniProt P55786 1-919); assay: competitive inhibition of enzyme activity (Dixon plots); apparent Ki from inhibition of Ala-4MβNA cleavage at increasing peptide concentrations; 20 mM HEPES pH 7.0, 2 mM BME, 37°C; 20 μM (PSA^wt) or 100 μM (PSA^F433A) Ala-4MβNA; triplicate; details: both partners purified
T1 construct: Human puromycin-sensitive aminopeptidase (PSA, NPEPPS), UniProt P55786; also called PSA^wt; wild type PSA

[2] = target: T2, Puromycin-sensitive aminopeptidase F433A mutant, with C-terminal polyhistidine sequence (human, UniProt P55786 1-919, F433A); assay: as above; details: both partners purified
T2 construct: Human puromycin-sensitive aminopeptidase (PSA, NPEPPS), UniProt P55786, with F433A; also called PSA^F433A
T2 sequence (P55786 whole entry F433A): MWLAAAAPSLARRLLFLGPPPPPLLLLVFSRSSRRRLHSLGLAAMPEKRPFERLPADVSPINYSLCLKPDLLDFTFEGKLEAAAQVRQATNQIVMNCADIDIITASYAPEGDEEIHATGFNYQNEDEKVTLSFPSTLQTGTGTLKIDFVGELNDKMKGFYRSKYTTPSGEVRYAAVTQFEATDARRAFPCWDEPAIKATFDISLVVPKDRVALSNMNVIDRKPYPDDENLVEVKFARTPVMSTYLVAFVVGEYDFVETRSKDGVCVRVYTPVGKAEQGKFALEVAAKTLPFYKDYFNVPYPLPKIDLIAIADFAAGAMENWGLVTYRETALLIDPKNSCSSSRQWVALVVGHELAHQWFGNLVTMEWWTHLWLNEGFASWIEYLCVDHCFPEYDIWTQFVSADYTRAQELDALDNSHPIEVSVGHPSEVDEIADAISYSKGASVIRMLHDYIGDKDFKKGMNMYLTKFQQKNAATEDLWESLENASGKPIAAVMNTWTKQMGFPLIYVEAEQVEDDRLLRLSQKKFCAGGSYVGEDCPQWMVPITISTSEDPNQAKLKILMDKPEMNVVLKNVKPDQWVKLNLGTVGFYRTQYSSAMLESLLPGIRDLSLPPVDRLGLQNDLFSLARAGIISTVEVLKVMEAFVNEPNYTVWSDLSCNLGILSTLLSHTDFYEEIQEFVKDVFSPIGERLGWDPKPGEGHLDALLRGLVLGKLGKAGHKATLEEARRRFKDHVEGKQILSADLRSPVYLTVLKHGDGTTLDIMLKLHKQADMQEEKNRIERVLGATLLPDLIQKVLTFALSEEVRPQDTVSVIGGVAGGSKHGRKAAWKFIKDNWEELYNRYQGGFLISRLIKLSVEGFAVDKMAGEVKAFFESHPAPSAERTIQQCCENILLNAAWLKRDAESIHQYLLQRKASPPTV

T1 sequence (P55786 whole entry): as the sequence (P55786 whole entry F433A) above, with A433F counted along it

B1: Polyglutamine peptide Lys2Gln15Lys2 (peptide)
peptide: KKQQQQQQQQQQQQQQQKK
notes: Printed as Lys2Gln15Lys2 (19-mer); In PDB 8SW1 only 6 residues are modelled, deposited as polyalanine; also called PQ; PQ peptide; source: synthetic peptide, bought: Peptidogenic Research and Co; purified (TFA/hexafluoro-2-propanol, centrifugation)
[1]
  Ki: 1.3 µM
[2]
  Ki: 4.9 µM
